{"source": "patent US12611470B2", "about": "“Chromatin-opening element for stable long term gene expression” (CZ Biohub SF, LLC, priority 2019, dated 2026)", "molecules": {"B1": {"name": "Candidate 6: Full length SRF-UCOE, SEQ ID NO:1; region between human SURF1 and SURF2 including first introns, chr9 (nucleic acid, listed as Homo sapiens)", "DNA": "GCACACGACCACAATTCCACTGAAAGCATTTTAATACGGAACTTGTCACTCCCAGGGAGCCTCCGCTCAGCCGGCAGTTGGTTCATTTCAATCCCCACGACAACCCTTCAAAGTGCAGGGCAGACAGCAGGTGGCTCTGCCCAGGCGCCTGGATCACAGCCCGGCCTGCAGCCCTCACCTGGGCGCGGGGAGACCCTGAGGACGCTCCTCCAGGCGGCGCTGGCCGGGGCCTGCGGACACGGACGGGCGGGCTGAGCTCCGGGACCCCTCCCCGCGCCCCGCACCCCGCACCCCGCACCCCGCACCCCGCACCCGGCGCTCACCCGTCCCAGCCCCGCCGCCCGCAGCCCCAGCTGCAACGCAGCCACCGCCGCCATCGCACCCGGCCCCGCGGGCGCTTCCGGGACGCAGGAGGCATCTGCATCCGGGGCGCCGCTGAGTCCCGCCCAGAGCCCCGCCCCCGGCTCCAGGTTCTGCGAGCGGCTTCCGCCGGGCTGCTCCGCGGGCGCGTCGGCCATGAGCGAGTTGCCGGGCGACGTGCGGGCGTTTCTGCGGGAGCACCCGAGCCTGCGGCTCCAGACGGACGCCCGCAAGGTTCGCAGCGCGGGAGGGGAACGGAGTGGCGGAGAAGGGCGCAGTTGGGATGAGGGGCTGAGGGGAGGGCAGGGGAGAGGAGAGGGCAGGGGAGAGGGGAGAGGGGAGAGCAGGAGAGAGGGGAAGGCAGGGGAGAGGGCGCGGCGGGATCAGGGGAGGAGAGGGAAGGGGGCGCGGCAGGAGGGGGCACCAGGGAGCGGAGCCCTGGCCCTCCTGACGTCCTGCCCGCCCACGCGTCCGCAGGTGAGGTGCATCCTGACAGGTCACGAGCTGCCCTGCCGCCTGCCGGAGCTCCAGGTCTACACCCGCGGCAAAAAGTACCAGCGGCTGGTCCGCGCCTCCCCGGCCTTCGACTATGCAGAGTTCGAGCCGCACATCGTGCCCAGCACCAAGAACCCGTAGGTGGTC"}}, "system": "P19 murine embryonic carcinoma stem cell line", "assay": "Stable transfection silencing screen of candidate UCOEs linked to Ef1α-GFP", "type": "cell-based, mouse", "conditions": "UCOE-Ef1α-GFP stable transfection", "description": "The candidate regions tested were Candidates 1, 1R, 3, 5, 6, 6R, 7, 8, 9R, 10, and 10R, with “R” denoting that the reverse orientation of the candidate region was tested. As a negative control, the stable expression construct without a UCOE or candidate region was assessed (Ef1a). As a positive control, the 2.2 kB A2UCOE sequence, as well as the 1.2 kB reverse orientation sequence 3′UCOE, were cloned into the same reporter construct as the candidate sequences. The percent GFP positive in the population was monitored as a metric for silencing by flow cytometry analysis with each passage, with the change (difference between final and initial time points) plotted on the graph (Δ% GFP+).\nThe assay is the same stable transfection screen format described for FIG. 2B. […]\nFluorescence data throughout silencing experiments was obtained using a MACSQuant® VYB flow cytometer (Miltenyi Biotec). EGFP was measured through the 488-nm laser and 525/50 nm band pass filter. Flow cytometry data was analyzed using the FlowJo™ single cell flow cytometry analysis software (Tree Star). […]\nCandidates were initially screened in the P19 murine embryonic carcinoma stem cell line. […] As P19 cells readily integrate DNA, a stable transfection of the expression construct performed. […]", "data": [{"molecule": "B1", "values": [{"measurement": "silencing resistance / stable expression relative to the negative (Ef1α-only) control", "setting": "19 days", "value": "significant improvement in stable expression"}, {"measurement": "loss in percent GFP positive cells over the time period", "setting": "over 19 days after puromycin removal, flow cytometry", "value": "about 6%"}]}]}
